Measured values taken from patent publication US20250353909A1 (IMCHECK THERAPEUTICS, published 2025).
One block for each molecule: values may come before it.

Experiments:
[1] = target: cynomolgus BTN3A, endogenous on cynomolgus PBMCs (cynomolgus); assay: flow cytometry, cynomolgus PBMCs Donor 1, from the fitted curve
[2] = target: cynomolgus BTN3A, endogenous on cynomolgus PBMCs (cynomolgus); assay: flow cytometry, cynomolgus PBMCs Donor 1, PE anti-human secondary
[3] = target: human BTN3A, endogenous on human cells (PBMCs; Daudi cells) (human) (UniProt O00481); assay: flow cytometry, human PBMCs Donor 1, PE anti-human secondary
[4] = target: BTN3A1 antigen (Sino Biological cat. no. 15973-H08H) (human) (UniProt O00481); assay: SPR Biacore T200, multi-cycle kinetics, antibody captured on Protein A, BTN3A1 as analyte
[5] = target: cynomolgus BTN3A, endogenous on cynomolgus PBMCs (cynomolgus); assay: flow cytometry, cynomolgus PBMCs Donor 3, PE anti-human secondary
[6] = target: cynomolgus BTN3A, endogenous on cynomolgus PBMCs (cynomolgus); assay: flow cytometry, cynomolgus PBMCs Donor 2, PE anti-human secondary
[7] = target: BTN3A1 antigen (Sino Biological cat. no. 15973-H08H) (human) (UniProt O00481); assay: SPR Biacore T200, single cycle kinetics, culture supernatants
[8] = target: cynomolgus BTN3A, endogenous on cynomolgus PBMCs (cynomolgus); assay: flow cytometry, cynomolgus PBMCs Donor 3, from the fitted curve
[9] = target: human BTN3A, endogenous on human cells (PBMCs; Daudi cells) (human) (UniProt O00481); assay: flow cytometry, human PBMCs Donor 1, from the fitted curve
[10] = target: cynomolgus BTN3A, endogenous on cynomolgus PBMCs (cynomolgus); assay: flow cytometry, cynomolgus PBMCs Donor 2, from the fitted curve
[11] = target: T1, human BTN3A, endogenous on human cells (PBMCs; Daudi cells) (human, UniProt O00481 30-513); assay: flow cytometry, human PBMCs Donor 1, PE anti-human secondary
T1 construct: whole, on cells; also called human PBMCs
Protocol: Frozen PBMCs were revived, added to pre-warmed AIM-V (ThermoFisher Scientific, Loughborough, UK) media and counted. Cells were harvested, washed by centrifuging at 500×g for 10 minutes and then resuspended in 1×DPBS, pH 7.4. This step was repeated once and the cells were resuspended in 1×DPBS, pH 7.4 at 1×10⁶ cells/mL. Cells were stained for viable and dead cells by incubating for half an hour in the dark using the LIVE/DEAD® Far Red Dead Cell staining kit (ThermoFisher, Paisley, UK) following the manufacturer's instructions. An aliquot of cells heated at 70° C. for ten minutes was included as the dead cell control. During this staining, a three-point, 1 in 3 titration curve of test antibody (starting from 0.063 μg/mL for the selected antibodies) was prepared in Flow buffer (0.5% BSA, 2 mM EDTA, 1×DPBS, pH 7.4) in a 96-well dilution plate. […] Cells were then analysed on an Attune NxT focusing cytometer (ThermoFisher Scientific, Loughborough, UK), collecting 10,000 events per sample using two laser channels: RL1 for live/dead cells and BL2 for PE. Data was analysed using the instrument statistic tool or FlowJo software (Version 10, FlowJo, LLC, Ashland, USA) gating on the live population of lymphocyte cells. The X-median values from BL2 channel (PE signal) were then calculated and plotted against concentration. […]

[12] = target: T2, BTN3A1 antigen (Sino Biological cat. no. 15973-H08H) (human, UniProt O00481 30-254); assay: SPR Biacore T200, multi-cycle kinetics, antibody captured on Protein A, BTN3A1 as analyte
T2 construct: Bought recombinant antigen; also called CD277
Protocol: Multi-cycle kinetic analysis was performed on the six selected humanized 103.2 variants (VH4/Vκ2, VH4/Vκ3, VH4/Vκ4, VH5/Vκ2, VH5Vκ3, VH5/Vκ4) together with the chimeric antibody and the humanized variant, VH1/Vκ1, using a Biacore T200 (serial no. 1909913) instrument running Biacore T200 Evaluation Software V2.0.1 (Uppsala, Sweden).
Purified antibodies were diluted to a concentration of 2 μg/ml in 2% BSA/PBS. At the start of each cycle, each antibody was captured on the Protein A at a density (RL) of ˜146.5 RU (theoretical value to obtain an RMax of ˜50 RU). Following capture, the surface was allowed to stabilize before injection of the BTN3A1 antigen (Sino Biological cat. no. 15973-H08H). BTN3A1 was titrated in 0.1% BSA/HBS-P+(running buffer) in a two-fold dilution range from 25 to 0.78 nM. The association phase was monitored for 400 seconds and the dissociation phase for 35 minutes (2100 seconds). Kinetic data was obtained using a flow rate of 50 μl/min to minimize any potential mass transfer effects. Regeneration of the Protein A surface was conducted using two injections of 10 mM glycine-HCL pH 1.5 at the end of each cycle. Two blanks (no BTN3A1) and a repeat of a single concentration of the analyte were performed for each tested antibody to check the stability of the surface and analyte over the kinetic cycles. The signal from the reference channel Fc1 was subtracted from that of Fc2, Fc3 and Fc4 to correct for differences in non-specific binding to a reference surface. Additionally, blank runs were subtracted for each Fc to correct any antigen-independent signal variation, such as drift. Sensorgrams were fitted using a one-to-one binding mathematical model with a global RMax parameter and no bulk signal (Constant RI=0 RU).
The relative KD compared to 103.2 chimeric (VH0/Vκ0) was calculated by dividing the KD of the 103.2 Composite Human Antibody™ variants by that of the chimeric on the same chip.

[13] = target: T2, BTN3A1 antigen (Sino Biological cat. …); assay: SPR Biacore T200, single cycle kinetics, culture supernatants
Protocol: To assess the binding of all Composite Human Antibody™ variants and to select antibodies with suitable affinity to BTN3A as compared to the original murine antibody, single cycle kinetic analysis was performed on supernatants from transfected cell culture using a Biacore T200 (serial no. 1909913) running Biacore T200 Evaluation Software V2.0.1 (Uppsala, Sweden).

[14] = target: T1, human BTN3A, endogenous on human cells …; assay: cell-based or functional assay
[15] = target: T3, human BTN3A3 expressed on HEK293 cells (human, UniProt O00478 30-584); assay: cell microarray (Retrogenix), fixed HEK293 cells, 2 µg/ml antibody
T3 construct: Cell microarray (Retrogenix); one isoform of BTN3A3 was a hit; also called BTN3A3 (one isoform)

[16] = target: T4, human BTN3A2 expressed on HEK293 cells (human, UniProt P78410 30-334); assay: as above
T4 construct: Cell microarray (Retrogenix); also called BTN3A2 (two isoforms)
T4 sequence (P78410 30-334 limits assumed): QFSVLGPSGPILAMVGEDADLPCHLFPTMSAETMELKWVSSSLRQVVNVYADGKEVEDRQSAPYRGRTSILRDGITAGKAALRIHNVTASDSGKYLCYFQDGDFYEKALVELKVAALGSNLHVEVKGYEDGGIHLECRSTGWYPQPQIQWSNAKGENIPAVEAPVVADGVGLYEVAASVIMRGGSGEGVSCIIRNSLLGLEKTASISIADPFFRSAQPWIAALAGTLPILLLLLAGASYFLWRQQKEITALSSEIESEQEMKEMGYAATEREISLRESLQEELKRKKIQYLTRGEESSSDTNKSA

Chain of BTN3A1 antigen (Sino Biological cat. no. 15973-H08H) (human) (O00481 30-254 limits assumed): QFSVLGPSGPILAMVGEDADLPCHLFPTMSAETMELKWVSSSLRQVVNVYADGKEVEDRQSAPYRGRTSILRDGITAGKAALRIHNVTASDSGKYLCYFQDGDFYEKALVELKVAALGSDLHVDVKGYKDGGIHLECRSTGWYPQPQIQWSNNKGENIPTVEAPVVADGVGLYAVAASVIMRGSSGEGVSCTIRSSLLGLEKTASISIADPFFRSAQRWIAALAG
T2 sequence (O00481 30-254 limits assumed): as above
T1 sequence (O00481 30-513): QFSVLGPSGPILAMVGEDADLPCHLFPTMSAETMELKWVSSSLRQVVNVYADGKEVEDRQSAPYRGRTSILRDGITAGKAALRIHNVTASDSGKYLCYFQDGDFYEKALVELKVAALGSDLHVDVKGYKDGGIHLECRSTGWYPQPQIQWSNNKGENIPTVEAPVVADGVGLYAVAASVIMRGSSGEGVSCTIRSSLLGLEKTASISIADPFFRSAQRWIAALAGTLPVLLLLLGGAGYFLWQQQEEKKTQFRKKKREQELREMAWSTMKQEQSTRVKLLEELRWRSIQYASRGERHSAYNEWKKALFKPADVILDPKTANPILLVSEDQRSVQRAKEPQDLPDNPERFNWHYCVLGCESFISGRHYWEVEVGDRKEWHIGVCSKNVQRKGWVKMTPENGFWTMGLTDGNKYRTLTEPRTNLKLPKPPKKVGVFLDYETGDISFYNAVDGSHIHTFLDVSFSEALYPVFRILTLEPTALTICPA
Chain of human BTN3A, endogenous on human cells (PBMCs; Daudi cells) (human) (O00481 30-513): as above
T3 sequence (O00478 30-584 limits assumed): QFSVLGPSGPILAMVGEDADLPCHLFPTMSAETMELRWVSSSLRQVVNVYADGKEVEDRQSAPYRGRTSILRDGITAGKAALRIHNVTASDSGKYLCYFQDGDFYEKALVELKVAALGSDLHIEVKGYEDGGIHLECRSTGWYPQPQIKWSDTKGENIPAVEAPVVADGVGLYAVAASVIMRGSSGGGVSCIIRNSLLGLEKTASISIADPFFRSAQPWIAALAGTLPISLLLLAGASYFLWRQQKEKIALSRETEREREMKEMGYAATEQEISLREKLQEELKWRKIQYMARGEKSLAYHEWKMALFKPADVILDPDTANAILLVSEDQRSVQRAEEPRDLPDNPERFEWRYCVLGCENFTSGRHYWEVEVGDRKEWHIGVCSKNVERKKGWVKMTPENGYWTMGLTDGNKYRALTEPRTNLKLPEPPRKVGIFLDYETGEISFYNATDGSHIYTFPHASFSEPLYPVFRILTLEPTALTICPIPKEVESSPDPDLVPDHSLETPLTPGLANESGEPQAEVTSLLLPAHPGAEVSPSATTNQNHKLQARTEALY

Theoretical Max binding (MFI) [1]: 8950 MFI
EC50 [2]: 0.014 µg/mL
EC50 [3]: 0.019 µg/mL
Kd [4]: 106 pM
Relative KD to chimeric [4]: 1
koff [4]: 8.98e-05 s⁻¹
kon [4]: 845000 M⁻¹ s⁻¹
EC50 [5]: 0.013 µg/mL
EC50 [6]: 0.012 µg/mL
Kd [7]: 40.3 pM
Relative KD to 103.2 chimeric [7]: 1
Theoretical Max binding (MFI) [8]: 5150 MFI
Theoretical Max binding (MFI) [9]: 19600 MFI
Theoretical Max binding (MFI) [10]: 5940 MFI
Molecule: 103.2 chimeric antibody VH0/Vκ0

Theoretical Max binding (MFI) [1]: 8560 MFI
EC50 [2]: 0.013 µg/mL
EC50 [11]: 0.017 µg/mL
Kd [12]: 108 pM
Relative KD to chimeric [12]: 1 ratio
koff [12]: 8.33e-05 s⁻¹
kon [12]: 770000 M⁻¹ s⁻¹
Kd [13]: 54 pM
Relative KD to 103.2 chimeric [13]: 1.3 ratio
EC50 [5]: 0.012 µg/mL
IC50 (µg/ml), inhibition of γδ T cell degranulation (CD107a/b) against Daudi cells [14]: 0.0121 µg/mL
EC50 [6]: 0.011 µg/mL
Theoretical Max binding (MFI) [8]: 4970 MFI
Theoretical Max binding (MFI) [10]: 5820 MFI
B1: 103.2 humanized variant VH4/Vκ4 (antibody, V domains shown)
VH: QVQMQQSGAEVKKPGASVKVSCKASGYAFTSYLIHWIKQRPGQGLEWIGVINPRSGDSHYNEKFKDRVTMTADQSISTAYMELSRLRSDDTAVYYCARSDYGAYWGQGTLVTVSS
VL: EIVLTQSPATLSVSPGERATLSCRASQSISNNLHWYQQKPGQAPRLLIKYASQSAFGIPARFSGSGSGTEFTLTISSLQSEDFAVYFCQQSNSWPHTFGQGTKLEIK
notes: also called H4K4; 103.2 VH4/V κ 4

binding result [15]: binds
binding result [16]: binds
B2: mAb1 (Fc-silenced humanized 103.2 IgG1) (antibody, V domains shown)
VH: B1 VH
VL: EIVLTQSPATLSVSPGERATLSCRASQSISNNLHWYQQKPGQAPRLLIKYASQSAFGIPARFSGSGSGTEFTLTISSLQSEDFAVYFCQQSNSWPHTFGQGTKLEIKR
notes: Fc-silenced human IgG1, kappa; also called humanized 103.2 Fc-silenced IgG1; Hu103.2
